Assay results reported in article PMC7717987, “αIIbβ3 variants in ten families with autosomal dominant macrothrombocytopenia: Expanding the mutational and clinical spectrum” (PLoS ONE, 2020).

Experiments:
Details in all cases: partners not purified
[1] = molecular target: T1, integrin αIIbβ3 (human (endogenous in platelets), UniProt P08514-1 32-1039; P05106-1 27-788); experiment: flow cytometry on cells; citrated whole blood of healthy controls stimulated with TRAP-6 (20 μM); platelets gated on FSC/SSC and CD42b; bound fibrinogen detected with FITC anti-bFG (clone 9F9); platelet activation index = (MFI test tube - MFI with EDTA 7 mM) / MFI with EDTA
T1 construct: integrin alpha-IIb (αIIb, GPIIb), human; integrin beta-3 (β3, GPIIIa, CD61), human; The platelets of the heterozygous patients carry wild-type and variant integrin together and are not made molecules; also called glycoprotein (GP) IIb/IIIa receptor complex; GPIIb/IIIa; source: endogenous, on platelets in citrated whole blood of healthy blood donors

[2] = molecular target: T1, integrin αIIbβ3; experiment: as above; remark: listed apart in the source
[3] = molecular target: T1, integrin αIIbβ3; experiment: flow cytometry on cells; citrated whole blood of healthy controls stimulated with ADP (10 μM); platelets gated on FSC/SSC and CD42b; bound fibrinogen detected with FITC anti-bFG (clone 9F9); platelet activation index = (MFI test tube - MFI with EDTA 7 mM) / MFI with EDTA
[4] = molecular target: T1, integrin αIIbβ3; experiment: as above; remark: listed apart in the source

B1: fibrinogen (complex, human (endogenous in whole blood))
chain 1: ADSGEGDFLAEGGGVRGPRVVERHQSACKDSDWPFCSDEDWNYKCPSGCRMKGLIDEVNQDFTNRINKLKNSLFEYQKNNKDSHSLTTNIMEILRGDFSSANNRDNTYNRVSEDLRSRIEVLKRKVIEKVQHIQLLQKNVRAQLVDMKRLEVDIDIKIRSCRGSCSRALAREVDLKDYEDQQKQLEQVIAKDLLPSRDRQHLPLIKMKPVPDLVPGNFKSQLQKVPPEWKALTDMPQMRMELERPGGNEITRGGSTSYGTGSETESPRNPSSAGSWNSGSSGPGSTGNRNPGSSGTGGTATWKPGSSGPGSTGSWNSGSSGTGSTGNQNPGSPRPGSTGTWNPGSSERGSAGHWTSESSVSGSTGQWHSESGSFRPDSPGSGNARPNNPDWGTFEEVSGNVSPGTRREYHTEKLVTSKGDKELRTGKEKVTSGSTTTTRRSCSKTVTKTVIGPDGHKEVTKEVVTSEDGSDCPEAMDLGTLSGIGTLDGFRHRHPDEAAFFDTASTGKTFPGFFSPMLGEFVSETESRGSESGIFTNTKESSSHHPGIAEFPSRGKSSSYSKQFTSSTSYNRGDSTFESKSYKMADEAGSEADHEGTHSTKRGHAKSRPVRGIHTSPLGKPSLSP
chain 2: QGVNDNEEGFFSARGHRPLDKKREEAPSLRPAPPPISGGGYRARPAKAAATQKKVERKAPDAGGCLHADPDLGVLCPTGCQLQEALLQQERPIRNSVDELNNNVEAVSQTSSSSFQYMYLLKDLWQKRQKQVKDNENVVNEYSSELEKHQLYIDETVNSNIPTNLRVLRSILENLRSKIQKLESDVSAQMEYCRTPCTVSCNIPVVSGKECEEIIRKGGETSEMYLIQPDSSVKPYRVYCDMNTENGGWTVIQNRQDGSVDFGRKWDPYKQGFGNVATNTDGKNYCGLPGEYWLGNDKISQLTRMGPTELLIEMEDWKGDKVKAHYGGFTVQNEANKYQISVNKYRGTAGNALMDGASQLMGENRTMTIHNGMFFSTYDRDNDGWLTSDPRKQCSKEDGGGWWYNRCHAANPNGRYYWGGQYTWDMAKHGTDDGVVWMNWKGSWYSMRKMSMKIRPFFPQQ
chain 3: YVATRDNCCILDERFGSYCPTTCGIADFLSTYQTKVDKDLQSLEDILHQVENKTSEVKQLIKAIQLTYNPDESSKPNMIDAATLKSRKMLEEIMKYEASILTHDSSIRYLQEIYNSNNQKIVNLKEKVAQLEAQCQEPCKDTVQIHDITGKDCQDIANKGAKQSGLYFIKPLKANQQFLVYCEIDGSGNGWTVFQKRLDGSVDFKKNWIQYKEGFGHLSPTGTTEFWLGNEKIHLISTQSAIPYALRVELEDWNGRTSTADYAMFKVGPEADKYRLTYAYFAGGDAGDAFDGFDFGDDPSDKFFTSHNGMQFSTWDNDNDKFEGNCAEQDGSGWWMNKCHAGHLNGVYYQGGTYSKASTPNGYDNGIIWATWKTRWYSMKKTTMKIIPFNRLTIGEGQQHHLGGAKQAGDV
notes: fibrinogen alpha chain, human; fibrinogen beta chain, human; fibrinogen gamma chain, human; Plasma fibrinogen of the donor's own blood; no fibrinogen was added; also called FG; soluble FG; source: endogenous, in citrated whole blood of healthy blood donors; copies: + +
platelet activation index (PAI) by bound fibrinogen, mean [1]: 15 fold increase in MFI over EDTA
platelet activation index (PAI) by bound fibrinogen, median [1]: 13 fold increase in MFI over EDTA
platelet activation index (PAI) by bound fibrinogen, median [2]: 16 fold increase in MFI over EDTA
platelet activation index (PAI) by bound fibrinogen, median [3]: 19 fold increase in MFI over EDTA
platelet activation index (PAI) by bound fibrinogen, mean [4]: 19 fold increase in MFI over EDTA
platelet activation index (PAI) by bound fibrinogen, median [4]: 17 fold increase in MFI over EDTA
